From article PMC12002136

Biological target: exportin 1 (XPO1, CRM1) (UniProt O14980)
Assay: anti-HA
Details: reference: wild type; sites S182

- binding against the reference: stronger
Substance: YTHDF1 (from UniProt Q9BYJ9) S182A
